The target of the experiment is G3BP1 (human), Q13283. As to the kind of experiment: ITC at 25 °C, peptide titrated into G3BP1.

Results on one molecule are retold here after patent EP4269424A1, “NOVEL ANTIVIRAL COMPOUNDS AND USE THEREOF” (priority 2022, dated 2023).

Chain of G3BP1 (human), Q13283 (Q13283 1-139 limits assumed): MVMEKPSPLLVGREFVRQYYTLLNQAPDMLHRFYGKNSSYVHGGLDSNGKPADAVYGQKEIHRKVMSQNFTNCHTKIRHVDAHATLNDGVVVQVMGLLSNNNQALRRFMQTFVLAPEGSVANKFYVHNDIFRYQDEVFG

B1: G3BPi WT peptide without CPP (peptide)
peptide: LTFGDFDEHEVDALASGITFGDFDDW
modifications: not checked
B1 had a Kd of 3.6 µM.

The Kd is a measure of binding affinity in units of concentration.
